Measurements from patent US20090317397A1 (published 2009).
Substitutions are numbered along the chain they refer to. One block for each molecule: values may come before it.

Tests used:
[1] = biological target: CTLA4Ig fusion protein (human) (UniProt P16410); assay: solid phase binding, 4 nM ^125I-B7Ig on immobilized CTLA4Ig
[2] = biological target: CTLA4Ig fusion protein (human) (UniProt P16410); assay: solid phase competition, ^125I-B7Ig (4 nM) on immobilized CTLA4Ig
[3] = biological target: CTLA4Ig fusion protein (human) (UniProt P16410); assay: Scatchard plot of the solid phase competition data, immobilized CTLA4Ig
[4] = biological target: T1, B7 antigen (B7-1) stably expressed on CHO cells (UniProt P33681 35-288, limits assumed); assay: cell enzyme immunoassay on fixed B7-1+ CHO cells
T1 construct: whole, on cells; also called B7+CHO cells; B7 positive CHO cells
T1 sequence (looked up): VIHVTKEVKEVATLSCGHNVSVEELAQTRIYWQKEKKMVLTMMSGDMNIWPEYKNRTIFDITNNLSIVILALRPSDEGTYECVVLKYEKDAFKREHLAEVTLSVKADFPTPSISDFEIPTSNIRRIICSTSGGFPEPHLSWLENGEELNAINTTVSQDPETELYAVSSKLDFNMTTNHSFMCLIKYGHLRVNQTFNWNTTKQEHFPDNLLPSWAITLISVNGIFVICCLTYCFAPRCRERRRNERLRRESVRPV

binding result [4]: binds
B2: CTLA4/CD28Ig hybrid fusion protein HS11 (Fc fusion)
chain: NKILVKQSPMLVAYDNAVNLSCKYASPGKATEFRASLHKGLDSAVEVCVATYMMGNELQVYSKTGFNCDGKLGNESVTFYLQNLYVNQTDIYFCKIELMYPPPYYLGIGNGTQIYVIDPEPCPD
notes: range 1-24;range 33-49;range 58-96; not shown: human IgG1 hinge (Cys to Ser), CH2, CH3; junction printed as DQE

binding result [4]: binds
B3: CTLA4/CD28Ig hybrid fusion protein HS13 (Fc fusion)
chain: B2 chain with Y115H, I117K, D118G, P119K, E120H, P121L, D124S
notes: not shown: human IgG1 hinge (Cys to Ser), CH2, CH3; junction printed as DQE

binding result [4]: binds
B8: CTLA4/CD28Ig hybrid fusion protein HS10 (Fc fusion)
chain: B2 chain with A25S, S26Y, P27N, G28L, K29F, A30S, T31R
notes: range 1-49;range 58-96; not shown: human IgG1 hinge (Cys to Ser), CH2, CH3; junction printed as DQE

binding result [4]: binds
B9: CTLA4/CD28Ig hybrid fusion protein HS12 (Fc fusion)
chain: NKILVKQSPMLVAYDNAVNLSCKYSYNLFSREFRASLHKGLDSAVEVCVATYMMGNELQVYSKTGFNCDGKLGNESVTFYLQNLYVNQTDIYFCKIELMYPPPYYLGIGNGTQIHVKGKHLCPS
notes: as for B3

binding result [4]: binds
B10: CTLA4/CD28Ig hybrid fusion protein HS6 (Fc fusion)
chain: AMHVAQPAVVLASSRGIASFVCEYSYNLFSREVRVTVLRQADSQVTEVCAATYMMGNELTFLDDSICTGTSSGNQVNLTIQGLRAMDTGLYICKVELMYPPPYYLGIGNGTQIYVIDPEPCPDSD
notes: range 25-32; not shown: human IgG1 hinge (Cys to Ser), CH2, CH3; junction printed as DQE

binding result [4]: binds
B12: CTLA4/CD28Ig hybrid fusion protein HS4-B (Fc fusion)
chain: NKILVKQSPMLVAYDNAVNLSCKYSYNLFSREFRASLHKGLDSAVEVCVVYGNYSQQLQVYSKTGFNCDGKLGNESVTFYLQNLYVNQTDIYFCKIEVMYPPPYLDNEKSNGTIIYVIDPEPCPD
notes: range 1-115; not shown: human IgG1 hinge (Cys to Ser), CH2, CH3; junction printed as DQE

binding result [4]: binds
B13: CTLA4/CD28Ig hybrid fusion protein HS5 (Fc fusion)
chain: NKILVKQSPMLVAYDNAVNLSCKYASPGKATEFRASLHKGLDSAVEVCVVYGNYSQQLQVYSKTGFNCDGKLGNESVTFYLQNLYVNQTDIYFCKIEVMYPPPYLDNEKSNGTIIHVKGKHLCPS
notes: CD28Ig itself runs to about 134; not shown: human IgG1 hinge (Cys to Ser), CH2, CH3; junction printed as DQE

Continued, molecule first:

Molecule: B7Ig fusion protein (from UniProt P33681 35-241) (Fc fusion)
radioactivity bound to wells treated without competitor [1]: 28300 cpm | IC50 [2]: 175 nM | Kd [3]: 12 nM

B1: CTLA4/CD28Ig hybrid fusion protein HS2 (Fc fusion)
chain: AMHVAQPAVVLASSRGIASFVCKYSYNLFSREFRASLHKGLDSAVEVCVVYGNYSQQLQVYSKTGFNCDGKLGNESVTFYLQNLYVNQTDIYFCKIELMYPPPYYLGIGNGTQIYVIDPEPCPDSD
notes: range 23-96; not shown: human IgG1 hinge (Cys to Ser), CH2, CH3; junction printed as DQE
binding result [4]: binds

B4: CTLA4/CD28Ig hybrid fusion protein HS8 (Fc fusion)
chain: NKILVKQSPMLVAYDNAVNLSCKYASPGKATEFRASLHKGLDSAVEVCVVYGNYSQQLQVYSKTGFNCDGKLGNESVTFYLQNLYVNQTDIYFCKIELMYPPPYYLGIGNGTQIHVKGKHLCPS
notes: as for B3
% of wild type binding [4]: ~60%

B5: CTLA4/CD28Ig hybrid fusion protein HS4 (Fc fusion)
chain: NKILVKQSPMLVAYDNAVNLSCKYSYNLFSREFRASLHKGLDSAVEVCVVYGNYSQQLQVYSKTGFNCDGKLGNESVTFYLQNLYVNQTDIYFCKIELMYPPPYYLGIGNGTQIYVIDPEPCPD
notes: range 1-96; also called the CD28Ig analog; not shown: human IgG1 hinge (Cys to Ser), CH2, CH3; junction printed as DQE
fold less binding than wild type CTLA4Ig [4]: ~5 fold | increase in binding relative to CD28Ig [4]: ~2.5 orders of magnitude

B6: CTLA4/CD28Ig hybrid fusion protein HS7 (Fc fusion)
chain: B4 chain with H115Y, K117I, G118D, K119P, H120E, L121P, S124D
notes: range 1-24;range 33-96; not shown: human IgG1 hinge (Cys to Ser), CH2, CH3; junction printed as DQE
% binding activity relative to CTLA4Ig [4]: ~44%

B7: CTLA4/CD28Ig hybrid fusion protein HS4-A (Fc fusion)
chain: B4 chain with A25S, S26Y, P27N, G28L, K29F, A30S, T31R
notes: as for B3
% of wild type binding [4]: ~2%

B11: CTLA4/CD28Ig hybrid fusion protein HS9 (Fc fusion)
chain: B13 chain with H116Y, K118I, G119D, K120P, H121E, L122P, S125D
notes: range 1-24;range 33-115; not shown: human IgG1 hinge (Cys to Ser), CH2, CH3; junction printed as DQE
binding result [4]: binds
